Biological target: Human MMP-12(ΔC) (human, UniProt P39900 106-263)
Assay: enzyme inhibition kinetics

Chain of Human MMP-12(ΔC) (P39900 106-263, stated change not applied): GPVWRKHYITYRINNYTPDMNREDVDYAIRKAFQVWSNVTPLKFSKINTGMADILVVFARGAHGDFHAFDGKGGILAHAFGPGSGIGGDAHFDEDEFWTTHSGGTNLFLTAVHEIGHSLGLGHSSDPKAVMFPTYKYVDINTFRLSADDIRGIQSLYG

- Ki: ~1.5 nM
- stoichiometry N: 1.05 molar equivalents
B1: N-TIMP-1, N-terminal inhibitory domain of tissue inhibitor of metalloproteinases 1 (active form, free alpha-amino group of Cys1) (domain or fragment)
chain: not shown
